Assays:
[1] = biological target: hK2 on target cells (VCaP, LNCaP/hK2, LNCaP, C4-2B) (human, UniProt P20151 19-261); experiment: cell-based or functional assay
[2] = biological target: T1, biotinylated recombinant hK2 protein (human, UniProt P20151 25-261, biotin label (EZ-Link Sulfo-NHS-LC-Biotin)); experiment: flow cytometry; CAR-transduced JNL cells stained with biotinylated hK2 and streptavidin-PE
T1 construct: In-house biotin-labelled recombinant hK2 used as the flow cytometry reagent; also called biotinylated hK2; Biotin-Hk2 protein

[3] = biological target: T1, biotinylated recombinant hK2 protein; experiment: flow cytometry; primary human T cells lentivirally transduced with the CAR (MOI 3), day 14, stained with biotinylated hK2 (1 ug/ml) then streptavidin-PE; UTD control gate 0.065

T1 sequence (P20151 25-261): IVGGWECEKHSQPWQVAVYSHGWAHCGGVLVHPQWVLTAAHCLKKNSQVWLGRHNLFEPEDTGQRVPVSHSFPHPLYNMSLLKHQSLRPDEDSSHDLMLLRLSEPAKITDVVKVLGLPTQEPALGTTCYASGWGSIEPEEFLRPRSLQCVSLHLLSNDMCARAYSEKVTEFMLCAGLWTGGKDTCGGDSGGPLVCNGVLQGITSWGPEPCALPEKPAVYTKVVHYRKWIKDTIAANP
Sequence of hK2 on target cells (VCaP, LNCaP/hK2, LNCaP, C4-2B) (P20151 19-261): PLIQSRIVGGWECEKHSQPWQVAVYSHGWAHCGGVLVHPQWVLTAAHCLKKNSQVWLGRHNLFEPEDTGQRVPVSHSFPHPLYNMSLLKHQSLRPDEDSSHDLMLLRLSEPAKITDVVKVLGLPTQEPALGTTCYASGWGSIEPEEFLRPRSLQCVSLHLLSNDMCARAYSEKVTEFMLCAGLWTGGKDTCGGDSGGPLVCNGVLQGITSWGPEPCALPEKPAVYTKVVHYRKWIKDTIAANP

B1: CAR20 (KL2B359_LH) (other)
chain: EIVLTQSPATLSLSPGERATLSCRASESVEYFGTSLMHWYQQKPGQPPRLLIYAASNVESGIPARFSGSGSGTDFTLTISSVEPEDFAVYFCQQTRKVPYTFGGGTKVEIKGGSEGKSSGSGSESKSTGGSQVQLQESGPGLVKPSQTLSLTCTVSGNSITSDYAWNWIRQFPGKRLEWIGYISYSGSTTYNPSLKSRVTISRDTSKNQFSLKLSSVTAADTAVYYCATGYYYGSGFWGQGTLVTVSSTSTPAPRPPTPAPTIASQPLSLRPEACRPAAGGAVHTRGLDFACDIYIWAPLAGTCGVLLLSLVITLYCKRGRKKLLYIFKQPFMRPVQTTQEEDGCSCRFPEEEEGGCELRVKFSRSADAPAYKQGQNQLYNELNLGRREEYDVLDKRRGRDPEMGGKPRRKNPQEGLYNELQKDKMAEAYSEIGMKGERRRGKGHDGLYQGLSTATKDTYDALHMQALPPR
notes: also called KL2B359 LH CAR; rehumanized 11B6 LH CAR
tumor cell growth inhibition (TGI, %) of hK2 positive VCaP cells, real-time IncuCyte killing assay, 96 hours [1]: ~100% | % of JNL cells stained with biotinylated hK2 (reported as CAR expression) [2]: 50.8% | percent of CD3+ T cells in the PE-positive gate (hK2 CAR) [3]: 59.9%

— patent US20220064254A1 (Janssen / Centocor, published 2022)
